Source: PMC2797226 (The Journal of Biological Chemistry, 2009)

Target: T1, His6-tagged Lhs1p (wild type) (S. cerevisiae, UniProt P36016 21-881)
T1 sequence: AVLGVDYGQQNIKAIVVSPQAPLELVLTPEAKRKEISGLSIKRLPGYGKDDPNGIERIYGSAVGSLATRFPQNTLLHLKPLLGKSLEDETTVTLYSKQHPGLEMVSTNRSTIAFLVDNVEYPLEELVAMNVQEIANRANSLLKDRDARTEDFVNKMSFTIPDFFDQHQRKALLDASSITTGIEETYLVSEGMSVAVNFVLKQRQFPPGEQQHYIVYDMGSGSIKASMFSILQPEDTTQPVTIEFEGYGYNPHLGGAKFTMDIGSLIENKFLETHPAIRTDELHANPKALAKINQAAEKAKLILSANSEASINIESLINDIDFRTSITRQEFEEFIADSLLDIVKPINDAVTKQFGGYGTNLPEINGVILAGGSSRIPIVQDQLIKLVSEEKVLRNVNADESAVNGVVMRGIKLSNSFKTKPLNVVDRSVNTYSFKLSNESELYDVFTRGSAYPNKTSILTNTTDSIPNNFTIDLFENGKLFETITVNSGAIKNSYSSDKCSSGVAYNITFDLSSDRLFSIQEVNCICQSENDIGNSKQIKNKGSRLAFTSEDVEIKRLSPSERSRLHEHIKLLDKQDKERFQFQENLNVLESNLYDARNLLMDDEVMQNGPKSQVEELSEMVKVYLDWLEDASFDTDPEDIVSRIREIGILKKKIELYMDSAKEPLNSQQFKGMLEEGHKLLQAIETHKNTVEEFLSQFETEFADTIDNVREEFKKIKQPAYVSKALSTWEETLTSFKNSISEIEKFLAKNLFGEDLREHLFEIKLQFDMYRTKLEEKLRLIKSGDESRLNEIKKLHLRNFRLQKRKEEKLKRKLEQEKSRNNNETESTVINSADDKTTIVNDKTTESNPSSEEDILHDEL
Experiment: pull-down

| Binder | binding result |
| --- | --- |
| GST-tagged Kar2p (wild type) (natural protein) not shown | binds |
| GST-tagged Kar2p(G246D) (natural protein) not shown | binds |
